In PMC11878792, “Structural basis for aminoacylation of cellular modified tRNA^Lys3 by human lysyl-tRNA synthetase” (Nucleic Acids Research, 2025):

Target: T1, human lysyl-tRNA synthetase (h-LysRS), wild type, full length (human, UniProt Q15046 1-597)
T1 construct: Human lysyl-tRNA synthetase (LysRS), full length, wild type; printed residue numbers (NTD 1-65, S207, linker 208-220) fit the cytosolic form; Dimer in the cryo-EM reconstructions; No removal of the His tag is described; also called wt LysRS; wt h-LysRS; source: E. coli BL21 (DE3), purified (PEI and ammonium sulfate precipitation, Ni-NTA, hydroxyapatite)
Test: cryo-EM structure; 10 uM h-LysRS-tRNALys3 (cellular modified, 1:1), 100 uM AIMP2-N36, 2.5 mM L-lysine, 2 mM AMP; complex formed 60 min at 4°C; 0.075% CHAPSO added before freezing
Conditions: both partners purified

T1 sequence (Q15046 whole entry): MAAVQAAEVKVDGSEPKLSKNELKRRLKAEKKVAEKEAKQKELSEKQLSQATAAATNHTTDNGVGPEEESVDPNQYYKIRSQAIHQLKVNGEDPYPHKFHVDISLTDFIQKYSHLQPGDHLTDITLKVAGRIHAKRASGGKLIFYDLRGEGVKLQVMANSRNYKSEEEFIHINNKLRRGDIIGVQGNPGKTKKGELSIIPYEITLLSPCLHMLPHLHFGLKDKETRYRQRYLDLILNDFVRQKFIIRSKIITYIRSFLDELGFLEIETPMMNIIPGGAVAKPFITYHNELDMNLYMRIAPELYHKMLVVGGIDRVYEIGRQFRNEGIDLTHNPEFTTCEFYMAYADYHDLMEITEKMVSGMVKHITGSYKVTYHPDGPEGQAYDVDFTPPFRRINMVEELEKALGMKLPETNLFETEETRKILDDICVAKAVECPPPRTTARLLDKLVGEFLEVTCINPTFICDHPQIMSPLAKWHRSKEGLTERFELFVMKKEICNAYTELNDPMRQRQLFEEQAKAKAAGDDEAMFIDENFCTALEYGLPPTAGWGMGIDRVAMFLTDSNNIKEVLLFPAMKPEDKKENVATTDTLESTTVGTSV

B1: AIMP2-N36 peptide (LysRS interacting N-terminal region of AIMP2) (peptide)
peptide: MPMYQVKPYHGGGAPLRVELPTCMYRLPNVHGRSYG
notes: also called AIMP2 peptide; p38; source: synthetic peptide, bought: Biosynth
  stoichiometry N: 2 copies per LysRS dimer
